{"source": "paper PMC4097884", "key": {"[1]": {"biological_target": "3K peptide peptide on I-Ab (mouse)", "assay": "SPR, equilibrium"}, "[2]": {"biological_target": "FMRKA peptide, from an IA^b-random peptide baculovirus library peptide on I-Ab (mouse)", "assay": "SPR, equilibrium"}}, "data": [{"substance": "J809.B5 αY31A", "values": [{"measurement": "Kd", "setting": "[1]", "value": 32, "unit": "µM"}, {"measurement": "Kd", "setting": "[2]", "value": 22, "unit": "µM"}]}]}
